Consider 16 substances from US20050064514A1.

Assay [1] has as its target soluble monomeric FcγRIIIA-linker-AVITAG (158V allele) (human) (UniProt P08637). Put plainly: BIAcore. For orientation: Surface plasmon resonance follows binding to a sensor surface in real time, without labels.
For assay [2] the target is unchanged. Nature of the assay: BIAcore separate fit.
Assay [3] has the same target. Put plainly: ELISA.
The target in assay [4] is soluble FcγRIIB (form used in the ELISA not stated) (human) (UniProt P31994). Put plainly: ELISA. In general terms: An ELISA detects its analyte on a solid surface through an enzyme-linked reagent.
The target of assay [5] is FcγRIIB-Fc fusion protein (soluble dimeric FcγRIIB) (human) (UniProt P31994). Nature of the assay: BIAcore.
Assay [6] has the same target. Put plainly: BIAcore separate fit.
Assay [7] addresses wild type CH1-CH3 Fc fusion protein displayed on yeast (pYD-CH1) (Saccharomyces cerevisiae; human) (UniProt P32781). Put plainly: FACS titration 1.4 to 0.0006 µM, mean fluorescence, nonlinear regression.
Assay [8] deals with soluble monomeric FcγRIIIA-linker-AVITAG (158V allele) (human) (UniProt P08637). Nature of the assay: FACS, 0.1 µM biotinylated FcγRIIIA then 0.1 µM unlabeled FcγRIIIA. In general terms: A flow cytometer gives signals particle by particle.

Values joined by “and” are separate entries in the source; they are usually repeats but may differ in a detail not shown here. Equal values may be shown once.

Chain of soluble monomeric FcγRIIIA-linker-AVITAG (158V allele) (human) (P08637 17-203 F176V limits assumed, form in doubt): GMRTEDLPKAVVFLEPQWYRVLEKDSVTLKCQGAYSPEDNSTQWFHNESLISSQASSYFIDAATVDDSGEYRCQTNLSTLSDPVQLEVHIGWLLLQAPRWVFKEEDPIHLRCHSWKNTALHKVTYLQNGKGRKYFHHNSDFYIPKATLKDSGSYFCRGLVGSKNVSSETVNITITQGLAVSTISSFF
Chain of FcγRIIB-Fc fusion protein (soluble dimeric FcγRIIB) (human) (P31994 43-217): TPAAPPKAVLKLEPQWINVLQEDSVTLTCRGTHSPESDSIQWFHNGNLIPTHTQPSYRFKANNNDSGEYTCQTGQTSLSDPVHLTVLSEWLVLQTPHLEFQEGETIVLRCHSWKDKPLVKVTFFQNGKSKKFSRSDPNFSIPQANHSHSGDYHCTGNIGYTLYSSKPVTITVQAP
Chain of soluble FcγRIIB (form used in the ELISA not stated) (human) (P31994 43-180 limits assumed, form in doubt): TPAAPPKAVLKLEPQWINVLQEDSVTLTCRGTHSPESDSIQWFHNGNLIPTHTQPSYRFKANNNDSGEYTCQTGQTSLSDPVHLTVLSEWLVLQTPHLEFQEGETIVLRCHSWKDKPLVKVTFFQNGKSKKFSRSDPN
Chain of P396L Fc variant displayed on the yeast surface (P32781 19-87, stated change not applied): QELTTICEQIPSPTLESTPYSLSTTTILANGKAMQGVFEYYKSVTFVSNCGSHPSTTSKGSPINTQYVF

The Kd is the equilibrium constant for the complex coming apart. A low value points to tighter binding. Turning to “ch4-4-20 K248M (from UniProt P01857 1-330) (antibody)”, the equilibrium dissociation constant (Kd) in assay [1] is 154 nM and 180 nM.
Turning to “ch4-4-20 Y319F, P352L, P396L (from UniProt P01857 1-330) (antibody)”, the dissociation constant Kd in assay [1] is 125 nM.
In assay [2], “ch4-4-20 Mut25(0225) (MgFc 25: E333A, K334A, S298A) (from UniProt P01857 1-330) (antibody)” came in with a Kd of 48.6 nM.
Regarding “ch4-4-20 V379M (from UniProt P01857 1-330) (antibody)”, the values for the Kd in assay [1] and in assay [2] were 160 nM and 214 nM, respectively.
Take “ch4-4-20 Mut 6 (S219V) (from UniProt P01857 1-330) (antibody)”: the ELISA, OD in assay [3] worked out at 0.6 OD. In assay [2], the Kd amounted to 264 nM.
As for “ch4-4-20 K288M, K334E (from UniProt P01857 1-330) (antibody)”, the Kd in assay [1] and in assay [2] was 75.4 nM in each case.
Take “ch4-4-20 E293V, Q295E, A327T (from UniProt P01857 1-330) (antibody)”: the Kd in assay [1] amounted to 195 nM.
In turn, “ch4-4-20 K334E, T359N, T366S (from UniProt P01857 1-330) (antibody)” yielded a Kd in assay [1] of 55.2 nM.
Consider “ch4-4-20 G316D, A378V, D399E (from UniProt P01857 1-330) (antibody)”, for which, in assay [1], the Kd turned out to be 72 nM.
By koff is commonly meant a measure of how fast the partners let go of each other. A higher koff goes with fast dissociation. With “chimeric 4-4-20 anti-fluorescein monoclonal antibody, wild type Fc”, the ELISA binding relative to wt in assay [4] and in assay [3] was 1 x in each case. Also, the ELISA, OD was found to be 0.4 OD in assay [4] and 0.5 OD in assay [3]. For the same substance, the equilibrium dissociation constant (Kd) in assay [5] is 94 nM; in assay [6] it was 61.4 nM. Also, the koff was found to be 0.094 s⁻¹ in assay [5] and 0.085 s⁻¹ in assay [6].
“soluble FcγRIIIA tetrameric complex (from UniProt P08637 17-203) (receptor)”: the Kd in assay [7] worked out at 6 nM.
On to “ch4-4-20 P247L, N421K (from UniProt P01857 1-330) (antibody)”, for which the Kd in assay [1] turned out to be 62 nM.
For the substance “P396L Fc variant displayed on the yeast surface (from UniProt P32781 19-87)”, the loss of cell staining after 1 minute with unlabeled receptor in assay [8] stood at 50%.
In turn, “ch4-4-20 H268N, P396L (from UniProt P01857 1-330) (antibody)” gave a Kd in assay [1] of 178 nM.
Regarding “ch4-4-20 K334E, R292L (from UniProt P01857 1-330) (antibody)”, the Kd in assay [1] and in assay [2] was 70.2 nM throughout.
For “ch4-4-20 K288N, A330S, P396L (from UniProt P01857 1-330) (antibody)”, the Kd in assay [1] and in assay [2] was 128 nM each time.
